According to paper PMC4022642:

Target: GST fusion of human TRESK cytoplasmic loop (amino acids 174-280) (human) (UniProt Q7Z418)
Experiment: pull-down; GST-TRESK 174-280 on glutathione agarose; mouse brain cytosol; four pairs of independent assays; anti-tubulin β3 Western blot with densitometry (ImageJ)

Sequence of UniProt Q7Z418 (Q7Z418 other isoform, or with tags, fused parts or gaps): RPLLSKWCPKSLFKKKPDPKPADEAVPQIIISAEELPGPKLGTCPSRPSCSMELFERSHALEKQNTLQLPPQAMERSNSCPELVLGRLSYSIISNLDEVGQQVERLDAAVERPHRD

densitometry counts of the anti-tubulin β3 immunoblot: 20500 counts
Substance: tubulin (mouse brain cytosol) (from UniProt P05213 1-451; Q9ERD7 1-450) (complex)
